Data set [1] has as its target T1, E. coli single-stranded DNA binding protein (SSB) (Escherichia coli, UniProt P0AGE0 1-178). Nature of the data set: single-molecule free solution hydrodynamic separation.
For data set [2], the target named is T1, E. coli single-stranded DNA binding …. Description: competition.
For data set [3] the target is unchanged. Description: competition. This is another data set of the same source.
For data set [4] the target is unchanged. Nature of the data set: single-molecule free solution hydrodynamic separation. The source holds these as a separate data set.

T1 sequence (P0AGE0 whole entry): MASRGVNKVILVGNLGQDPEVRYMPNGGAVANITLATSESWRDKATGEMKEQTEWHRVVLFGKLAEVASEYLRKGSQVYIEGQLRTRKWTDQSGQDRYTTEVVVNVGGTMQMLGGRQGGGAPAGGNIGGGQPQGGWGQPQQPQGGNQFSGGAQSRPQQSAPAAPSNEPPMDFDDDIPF

B1: 70nt poly(dT) (ssDNA)
DNA: TTTTTTTTTTTTTTTTTTTTTTTTTTTTTTTTTTTTTTTTTTTTTTTTTTTTTTTTTTTTTTTTTTTTTT
By Kd is commonly meant a measure of binding affinity in units of concentration. B1: the Kd was determined as 21.7 ± 0.2 nM in data set [1] and 22.1 ± 1.5 nM in data set [2].

Consider TTTTTTTTTTTTTTTTTTTTTTTTTTTTTTTTTTT (ssDNA) [35nt poly(dT)], for which the Kd in data set [3] came out at 11.7 ± 0.6 nM; in data set [4] it was 10 ± 0.5 nM.

Values taken from publication PMC8648464.
